Measured values taken from patent US20250250361A1, “ANTI-PLA2G10 ANTIBODIES AND METHODS OF USE” (Yale University, priority 2022, published 2025).
“Also recorded” adds a separate entry of the source. Values belong to the molecule of their own block, whether it stands above or below them.

Assays:
[1] = tested on: T cell migration inhibited by PLA2G10; test: high throughput T cell mobility assay (TCMA); format: cell-based; details: activated primary human T cells from 3 donors, CXCL11 100 ng/ml
Procedure: A high throughput T cell mobility assay (TCMA) was performed to assess the ability of the antibody clones identified in Example 1 and varespladib (a small molecule PLA2G10 inhibitor) to attenuate the inhibitory effect of PLA2G10 on T cell migration. The TCMA was built by modifying Boyden's two-chamber assay in a 96-well format, in which two chambers were separated by a porous membrane. While activated T cells on the upper chamber are largely held by the membrane, exposure to chemokines allows T cells to transpass the membrane and migrate into the lower chamber. In the assay, HEK293T cells 5×10^4 were seeded in a reservoir plate (the lower chambers) arrayed with human secretory molecule encoding genes and transiently transfected using jetPRIME® transfection reagent (Polyplus transfection) as described previously (Yao et al., (2011) Immunity 34:729-740). After overnight incubation, the culture supernatant was replaced by a fresh migration medium (RPMI-1640 containing 1% fetal calf serum from Atlanta Biologicals) and further cultured for 2-3 days. […] At the end of incubation, the upper chamber was removed, and cells in the lower chambers were collected and stained with AF647-labeled anti-human CD45 mAb (clone 2D1, Biolegend) and numerated by the Mirrorball® plate reader (TPP Labtech). […]

[2] = target: T1, recombinant human PLA2G10 protein (Origene) (human, UniProt O15496 43-165, limits assumed); test: one-way ELISA, plates coated with human PLA2G10 (Origene)
T1 construct: also called rhPLA2G10; hPLA2G10
T1 sequence (looked up): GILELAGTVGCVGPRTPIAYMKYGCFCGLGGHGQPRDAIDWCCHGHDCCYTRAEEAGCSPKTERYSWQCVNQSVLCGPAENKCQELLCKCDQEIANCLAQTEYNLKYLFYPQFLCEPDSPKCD
Procedure: (§1) A one-way ELISA was performed to assess antibody binding to PLA2G10. Plates were coated with either human PLA2G10 (Origene) or mouse PLA2G10 (NP285) at 0.5 mg/ml and tested using a PLA2G10 ELISA kit (Elabscience, China) per the manufacturer's instructions. Testing results were normalized as (Vt−Vm)/Vm, where Vt indicates the value calculated according to the standard curve and Vm indicates the mean value of all samples tested on the same ELISA plate.

[3] = target: T2, human PLA2G10 (Homo sapiens, UniProt O15496); test: one-way ELISA, antibody binding to human PLA2G10; details: plates coated with human PLA2G10
T2 construct: purchased Origene
T2 sequence (O15496 43-165): T1 sequence (looked up)
Procedure: as §1

[4] = target: T3, mouse PLA2G10 (Mus musculus, UniProt Q9QXX3); test: one-way ELISA, antibody binding to mouse PLA2G10; details: plates coated with mouse PLA2G10
T3 construct: NP285
T3 sequence (Q9QXX3 29-151): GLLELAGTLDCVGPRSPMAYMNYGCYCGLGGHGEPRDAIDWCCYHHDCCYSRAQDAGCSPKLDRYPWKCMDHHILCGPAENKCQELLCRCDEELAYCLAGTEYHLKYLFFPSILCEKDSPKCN
Procedure: as §1

[5] = tested on: MC38-2G10 tumors; test: MC38-2G10 syngeneic tumor model; format: in vivo; details: established tumors in mice, antibodies at 6, 11 and 16 days after inoculation
Procedure: FIG. 4 is a graph showing MC38-2G10 tumor growth in mice over time with anti-PLA2G10 antibody 1C11, anti-PD-1 antibody G4, or combined treatment. Mice were treated with antibodies at 6, 11, and 16 days after tumor inoculation. Representative results of two independent experiments are shown as the mean±SEM. Data were analyzed by two-way ANOVA. * p<0.05, ns=not significant.
To investigate the in vivo effects of anti-PLA2G10 antibody 1C11, a tumor cell line, MC38-2G10, was established by lentivirus-mediated gene transduction to stably express murine PLA2G10 homolog.

[6] = target: T4, recombinant human PLA2G10 (rhPLA2G10) (Homo sapiens, UniProt O15496); test: sPLA2 assay kit, phospholipase enzymatic activity of human PLA2G10; format: biochemical; details: rhPLA2G10 2.5 μg/ml, antibody 25 μg/ml, RT 30 minutes preincubation
T4 sequence (O15496 43-165): T1 sequence (looked up)
Procedure: (§2) The PLA2G10 enzymatic activity for hydrolysis of phospholipids was tested using a sPLA2 assay kit (Cayman Chemical, MI) according to manufacturer's instructions. Briefly, the 1,2-dithio analog of diheptanoyl phosphatidylcholine serves as a substrate for sPLA2s. Upon hydrolysis of the thioester bond at the sn-2 position by PLA2G10, free thiols are detected using DTNB (5,5′-dithio-bis-(2-nitrobenzoic acid)). Recombinant human PLA2G10 protein (rhPLA2G10) (0.5 μg, 2.5 μg/ml final concentration) was incubated with 1C11 antibody (5 μg, 25 μg/ml final concentration) at RT for 30 minutes before testing. Mouse PLA2G10 protein (mPLA2G10-IgFc) (0.32 mg/ml) was incubated with 1C11 or 2B12 antibody (1 mg/ml) at 37° C. for 45 minutes before testing.

[7] = tested on: mouse PLA2G10 (mPLA2G10-IgFc); test: sPLA2 assay kit, phospholipase enzymatic activity of mouse PLA2G10; format: biochemical; details: mPLA2G10-IgFc 0.32 mg/ml, antibody 1 mg/ml, 37° C. 45 minutes preincubation
Procedure: as §2

[8] = tested on: HT-29 tumors; test: HT-29 xenograft tumor model in NSG mice; format: in vivo; details: compared to control
Procedure: FIG. 6A is a graph showing HT29 xenograft tumor growth over time with anti-PLA2G10 antibody 1C11 or control treatment. Data were analyzed by one-way ANOVA. * p<0.01. FIG. 6B is a series of pictures showing 1C11 or control antibody treated tumors at day 37. Tumors were surgically removed, formalin-fixed, and sectioned. Tumor tissue sections were studied by immunohistochemistry using an anti-human CD3 mAb. FIG. 6C is a graph showing quantification of CD3+ T cells in control antibody or 1C11 treated tumors (hpf, high power field x400). Cell numbers of ten […] hpfs were randomly picked in each sample for counting and average cell counts were plotted. Box whisker plots depict the mean, the minimum to the maximum value, and each data point was shown. Data were analyzed by the Mann-Whitney test. * p<0.05.
The human colon adenocarcinoma cell line HT-29 secretes PLA2G10 and forms tumors when inoculated in immunodeficient NSG (NOD scid gamma) mice subcutaneously.

[9] = tested on: KPC-2G10 tumors; test: KPC-2G10 syngeneic tumor model; format: in vivo, mice
Procedure: FIG. 5A is a graph showing KPC-2G10 tumor growth in mice over time with anti-PLA2G10 antibody 1C11, anti-PD-1 antibody G4, or combined treatment. Mice were treated with antibodies at 5, 10, and 15 days (+20-day treatment for 1C11) after tumor inoculation. Representative results of two independent experiments are shown as the mean±SEM. Data were analyzed by one-way ANOVA. FIG. 5B is a graph showing quantification of CD3+T cells by immunohistochemistry staining with an anti-CD3 mAb in the KPC-2G10 tumors with or without 1C11 treatment. Cell numbers of five hpfs were randomly picked in each sample for counting and average cell counts were plotted. Box whisker plots depict the mean, the minimum to the maximum value, and each data point was shown. Data were analyzed by the Mann-Whitney test. * p<0.05.
Similar results were also obtained in another syngeneic mouse model using the KPC pancreatic cancer subline, which has moderate TILs when growing subcutaneously (Sun et al., 2021, Sci Transl Med 4, 127ral37) (FIG. 5A).

[10] = CD3+ T cells by immunohistochemistry

Molecule: CCc1c(C(=O)C(N)=O)c2c(OCC(=O)O)cccc2n1Cc1ccccc1 [varespladib, reference compound]
reversal of T cell migration inhibited by PLA2G10 [1]: reversed

binding result [2]: binds
B1: anti-PLA2G10 antibody 1C11 (mouse IgG2a) (antibody, V domains shown)
VH: QVTLKESGPGILHPSQTLSLTCSFSGFSLNTFGLGVGWVRQPSGKGQEWLAHIWWDDDRYYNPPLKSRLTISKDPSKNQVFLTIPNVNTANTATYYCTQILPHWVAYWGQGTTLTVSS
VL: DIQMNQSPSSLSASLGDTITISCHASQNINVWLSWYQQKPGNIPKLLIYKASNLHTGVPSRFSGSGSGTGFTFTISSLQPEDIATYFCQQGQSYPFTFGGGTKLELK
notes: also called 1C11 antibody; anti-PLA2G10 mAb IC11

inhibition of phospholipase enzymatic activity of human PLA2G10 [6]: inhibited
inhibition of phospholipase enzymatic activity of mouse PLA2G10 [7]: inhibited
B2: 1C11: anti-PLA2G10 antibody clone, VH SEQ ID NO: 1, VL SEQ ID NO: 2; binds human and mouse PLA2G10 (antibody, V domains shown)
VH: B1 VH
VL: B1 VL
binding to human PLA2G10 protein [3]: recognized; also recorded: showed binding
binding to mouse PLA2G10 protein [4]: recognized; also recorded: showed binding
MC38-2G10 tumor growth [5]: did not induce the regression
reversal of T cell migration inhibited by PLA2G10 [1]: reversed
T cell infiltration in HT-29 tumors [8, 10]: promoted T cell infiltration
HT-29 xenograft tumor growth ([8]; subcutaneous): retarded tumor growth
T cell infiltration in KPC-2G10 tumors [9, 10]: promoted T cell infiltration
KPC-2G10 tumor growth ([9]; syngeneic mice, subcutaneous, antibodies at 5, 10, 15 days): responded partially
